# Measured values as given in the nanobody polyreactivity screen of Harvey et al. (2022).
# Experiment: yeast display, Sf9 membrane polyspecificity reagent, FACS + sequencing; frameworks hold sequencing errors
# How it was run: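 Nanobodies from a synthetic yeast display library (Saccharomyces cerevisiae BJ5465), induced 36–48 hours with galactose, were stained 1 hour at 4 °C with 10% biotinylated, detergent-solubilized Sf9 membrane reagent, enriched on streptavidin microbeads, then FACS-sorted. Anti-HA (expression) and streptavidin (reagent binding) fluorescence set low and high (top ~1%) gates. Polyreactivity labels come from the gate of origin. Genes were colony-PCR amplified, MiSeq 2 × 250 sequenced and filtered by CDR length.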
row,Sequence,polyreactivity (PSR sort gate)
1,QVQLVESGGGLVQAGGSLRLSCAASGRIFKTYTMGWYRQAPGKERELVAVSTSVGSTYYADSVKGRFTISRDNAKNTVYLQMNSLKPEDTAVYYCAAETWVPQGYDYWGQGTQVTVSS,high polyreactivity
2,QVQLVESGGGLVQAGGSLRLSCAASGFTFYKNTMGWYRQAPAKARELVAAISSSGSSTYYADSVKGRFTISRDYAKNTVYLQMNSLKPEDTAVYYCAAGRFAYHDDYWGQGTQVTVSS,high polyreactivity
3,QVQLVESGGGLGQAGGSLLLSCAASGRIFWCNAMGWTRQAPGKERELVAAIRWSGGSTYYADSVKGRFTISRDNAKNTVYLQMNSLKPEDTAVYYCAASPYWSDWTKVDSWGQGTQVTVSS,low polyreactivity
4,QVQLVESGGGLVQAGGSLRLSCAASGRIFRGNAMGWYRQAPGKERELVAAISNSGGRTYYADSVKGRFTISRDNAKNTVYVQMTSLKPEDTAVYYCNAVTYSRRYAYYYWGQGTQVTVSS,high polyreactivity
5,QVQLVESGGGLVQAGGSLRLSCAASGSTFYRYAMGWYRQAPGKERELVAAISNSGGSTNYADSVKGRFTISRDNAKNTVYLQMNSLKPEDTAVYYCAADPYDLVWVEDYDYWGQGTQVTVSS,high polyreactivity
6,QVQLVESGGGLVQAGGSLRLSCAPSGSIFDFNTMGWYRQAPGKERELVAAISQRTGRTYYADSVKGRFTISRDNAKNTVYLQMNSLKPEDTAVYYCARTDRRLGAHQGDYWGQGTQVTVSS,high polyreactivity
7,QDQLVESGGGLVQAGGSLRLSCAASGRTLGKYAMGWSRQAPGQERELVAAITQRGGITYYADSVQGRFTISRDNAKNTVYLQMNSLKPEDTAVYYCAASLYSYRSPYTFYYWGQGTQVTVSS,high polyreactivity
8,QVQLVESGGGLVQAGGSLRLSCAASGFIFWTYAMGWYRQAPGKERELVAAITGGGGTTYYADSVKGRFTISRDNAKNTVYLQMNSLKPEDTAVYYCAAKQYRSRSGGYWGQGTQVTVSS,high polyreactivity
9,QVQLVESGGGLVQAGGSLRLSCAASGRTFKDYAMGWYRQAPGKERELVAGINGSGGSTYYADSVKGRFTISRDYAKNTVYLQMNSLKPEDTAVYYCNADFGYWWDGRRYDYWGQGTQVTVSS,low polyreactivity
10,QVQLVESGGGLVQAGGRLRLSCAASGFIFGSYAMGWYRQAPGKERELVAVISSSGGRTYYADSVKGRFTISRDNAKNTVYLQMNSLKPEDTAVYYCNAKSRLFPTYRIYDYWGQGTQVTVSS,high polyreactivity
11,QVQLVESGGGLVQAGGSLRLICAASGSIFFVYDMGWYRQAPGKERELVAAITWSGGRTTYADSVKGRFTISRDNAKNTVYLQMNSMKPEDTAVYYCAKAWPDHWYSRYDYWGQGTQVTVSS,low polyreactivity
12,QVQLVESGGGLVQAGGSHRLSCAASGIISPFYAMGWYRQAPGKERELVADISTGGTTTYADSVKGRFTISRDNAKNTVYLQMNSLKPEDTAVYYCNAEVSLTYYWIVWASYDYWGQGTQVTVSS,low polyreactivity
13,QVQLVESGGGLVQAGGSLRLSCAASGFTFRGYVMGWYRQAPGKERELVAAITNIGTSTYYADSVKGRFTISRDNAKNTVYLQMNSLNPEDTAVYYCAARLRSIFYDWGLGTQVTVSS,low polyreactivity
14,QVQLVESGGGLVQAAGSLRLICAASGSIFTRYTMGWYRQAPGKERELVAVISDSSGRTYYADSVKGRFTISRDNAKNTVYLQMNSLKPEDTAVYYCAAEYSDIYEYWGQGTQVTVSS,low polyreactivity
15,QVQLVESGGGLDQAGGSLPLTCAASGSIFDPNAMGWYRQAPGKERELVANNTIGGRTNYADSVKGRFTISRDNPKNTVYLQMNSLKPDDTAVFYCAKDSPYTSVTVLAPIIYESWGKGTQVTVSS,low polyreactivity
16,QVQLVESGGGLVQAGGSLRLSCAASGLTFGRYAMGWYIQATGKERQLVASISQRGGSTYYADSVKGRFTISRDNAKNTVYLQMNSLKPEDTAVYYCNARVRDIYRYSMDSWGQGTQVTVSS,low polyreactivity

row,Sequence,polyreactivity (PSR sort gate)
1,QVQLVESGGGLVQAGGSLRLSCAASGIIFTLYATGWYRQAPGKERELVAAISGSGGSTYYADSVKGRFTISRDNAKNTVYLQMNSLKPEDTAVYYCAARGVRGTGLDSRMYYWGQGTQVTVSS,high polyreactivity
2,QVQLVESGAGLVQAGGSLRLSCAASGRIFADYAMGWYRQAPGKERELVADIRQSGGRTYYADSVKGRFTISRDNAKNTVYLQMNSLKPEDTAVYYCATDYGSWGDYSGKYDYWGQGTQVTVSS,low polyreactivity
3,QVQLVESGVGLVQAGGSLRLSCAASVSTFAYNAMGWYRQSPGKEREIVASISWSGGSTYYADSVKGRFTISRDNAKNSVYLQMNSLKPEDTAVYYCAADLNAYPQRAYDYWGQGTQVTVSS,low polyreactivity
4,QVQLVESGGGLVQAGGSLRLSCSASGFIFRYNAMGWYRQAPGKEREFVAAISQGGASTYYADSVKGRFTISRDNAKNTVYLQMNSLKPEDTAVYYCNAVVDTSKYTDYYWGQGTQVTVSS,low polyreactivity
5,QVQLVESGGGLVQAGGSLRLSCAASGSIFSGYAMGWYRQAPGKERELVAALTRSGGRTYYADSVKGRFTISRDNAKNTVYLQMNSLKPEDTSVYYCATLPRYYGYWGQGTQVTVSS,high polyreactivity
6,QVQLIESGGGLVHAGGSLRLSCAASGSTYQANTMGWYSHAPGKERQLVAAISIRGANTYYADSVKGRFTISRDNAKNTVYIQMNSLKPEDTAVYDCATRVRKYSLRLDYWGQGTQVTVSS,high polyreactivity
7,QVQLVESGGGLVQAGGSLRLSCAASGRTFAYYAMGWYRQAPGTERELVAGITYSGGRTYYADSVKGRFTISRDNAKNTVYLQMNSLKPEDTAVYYCATRWPSKPTSRAMYYWGQGTQVTVSS,high polyreactivity
8,QVQLVESGGGLVQAGGSLRLSCAASGSTFAGYAMGWYRQAPGKERELVAAISRRGGSTYYADSVKGRFTISRDYAKNTVYLQMNRLKPEDTAVYYCNRDKYLRDPDYDYWGQGSQVTVSS,low polyreactivity
9,QVQLVESGGCLVQAGCSLSLSCAASGITFRPYAMGWYRQAPGKERELVAAIRWDGGSTYYADSVKGRFTISRDNAKNTVYLQMNSMKPEDTAVDYCAAKRPTHVRKMDYWGQGTQVTVSS,high polyreactivity
10,QVQRVESGGGLVQAGGSLRLSCAASGSIFYWYAMGWNIQAPGEEREFVAAITWSGGSTYYADSVKGRFTISRDNAKNTVYLQMNSLQPEDTAVYSCAAQGRRYGYGDFYYWGQGSQVTVSS,high polyreactivity
11,QVQLVDSGGGLVQAGGSLRLSCAASGLTFSKYAMGWYRQAPGKERELVSAISRSGGSTYYADSVKGRFTISRDNAKNTVYLQMNSLKPEDTAVYYCAARRLVGAERPGYDYWGQGTQVTVSS,high polyreactivity
12,QVQLVESGGGLVQAGGSLRLSCAASGSIFDQYAMGWYRPAPGKERELVAAIDTSGGSTYYADSVKGRFTISRDNAKNTVYLQMNSLKPEDTAVYYCNAGGDGDILTTEMDYWGPGTQVTVSS,low polyreactivity
13,QVQLVDSGGCLVQAGGSLRLSCAASGFIFNFYAMGWYRQAPRQQREFVAAISTRGGSTYYADSVKGRFTISRDNAKNTVFLQMKSLKPEDTAVYYCAARRFWGSRRLDYWGQCTQVTVSS,high polyreactivity
14,QVQLVESGGGLVQAGGSLRLSCAASGSIFESYVMGWSRPAPGTEREMVAAISSGGSTYYADSVKGRFTISRDNAKNTVYLQMNSLKPEDTAVYYCAANYDGGYLDYEAGYRLEYDYWGQGTQVTVSS,low polyreactivity
15,QVQHEESGGGLVQAGGSLRLSCAASGSIIAYNAMGWYRQAPGKERELVAAITDSGGSTFDADSVKGRFTFSRDYGMITVYLQMNSLIPEDTAVYYCATSGDRLVWGQGTQVTVSS,low polyreactivity
16,QVQLVESGGGLVQAGGSLRLICAASGNTIIRYAIGWFRQAPGKERELVAAISYSGGRTYYADSVKGRFTISRDNAKNTVYLQMNSVKPEDTAVYYCNAASRYGGDYWGQGTQVTVSS,low polyreactivity
